Article PMC3618048, “A Novel Alkaliphilic Bacillus Esterase Belongs to the 13th Bacterial Lipolytic Enzyme Family” (PLoS ONE, 2013)

Tests used:
[1] = target: esterase EstOF4 from Bacillus pseudofirmus OF4 (Bacillus pseudofirmus OF4); assay: SEC; Superdex200 10/30 column calibrated with cytochrome C, carbonic anhydrase, bovine serum albumin and alcohol dehydrogenase; native molecular weight of purified EstOF4
purified protein [2] = substrate: CC(=O)Oc1ccc([N+](=O)[O-])cc1; assay: purified protein; assay type: biochemical, Alkalihalophilus pseudofirmus; conditions: 50 mM Tris-HCl pH 8.5, 50 °C
purified protein [3] = substrate: CCC(=O)Oc1ccc([N+](=O)[O-])cc1; assay: purified protein; assay type: biochemical, Alkalihalophilus pseudofirmus; conditions: 50 mM Tris-HCl pH 8.5, 50 °C
purified protein [4] = substrate: CCCC(=O)Oc1ccc([N+](=O)[O-])cc1; assay: purified protein; assay type: biochemical, Alkalihalophilus pseudofirmus; conditions: 50 mM Tris-HCl pH 8.5, 50 °C
purified protein [5] = substrate: CCCCCC(=O)Oc1ccc([N+](=O)[O-])cc1; assay: purified protein; assay type: biochemical, Alkalihalophilus pseudofirmus; conditions: 50 mM Tris-HCl pH 8.5, 50 °C
purified protein [6] = substrate: CCCCCCCC(=O)Oc1ccc([N+](=O)[O-])cc1; assay: purified protein; assay type: biochemical, Alkalihalophilus pseudofirmus; conditions: 50 mM Tris-HCl pH 8.5, 50 °C
purified protein [7] = substrate: CCCCCCCCCC(=O)Oc1ccc([N+](=O)[O-])cc1; assay: purified protein; assay type: biochemical, Alkalihalophilus pseudofirmus; conditions: 50 mM Tris-HCl pH 8.5, 50 °C
purified protein [8] = substrate: CCCCCCCCCCCC(=O)Oc1ccc([N+](=O)[O-])cc1; assay: purified protein; assay type: biochemical, Alkalihalophilus pseudofirmus; conditions: 50 mM Tris-HCl pH 8.5, 50 °C

“esterase EstOF4 from Bacillus pseudofirmus OF4 (enzyme)” showed a stoichiometry N [1] of 2.

B1: EstOF4 (Alkalihalophilus pseudofirmus OF4) (protein)
chain: MKVVAPKPFTFEGGDRAVLLLHGFTGTTADVRMIGRHLQKEGYTCHAPLYKGHGVPPEELVHTGPEDWWKDVEAGYNYLKEKGHEEIAVCGLSLGGVFSLKIGYTLPVKGIVPMCAPVRPKTEDAMYKGVLAYAREYKKREQKSDDVINQEMEAFKPMGTLSALGELIQDVHNHLDHIYSPTFVVQARNDEMIDVESANIIHDQIESDEKSLKWYEESGHVITLDKEKEQLHEDILQFLEGLDWTV
notes: full-length ORF (246 aa, 741 bp, no signal peptide), pET-28a NdeI/BamHI, N-terminal His tag, E. coli BL21(DE3); about 35 kDa SDS-PAGE, 64 kDa native dimer
Work on B1 yielded a Km (purified protein [2]) of 37 ± 6 µM, a kcat (purified protein [2]) of 2.07 ± 0.0667 s⁻¹ and a kcat/Km (purified protein [2]) of 56700 M⁻¹ s⁻¹. For the same molecule, the Km (purified protein [3]) was 94 ± 9 µM, the kcat (purified protein [3]) was 3.52 ± 0.0667 s⁻¹ and the kcat/Km (purified protein [3]) was 38300 M⁻¹ s⁻¹. The Km (purified protein [4]) was 90 ± 9 µM, the kcat (purified protein [4]) was 3.65 ± 0.0667 s⁻¹ and the kcat/Km (purified protein [4]) was 40000 M⁻¹ s⁻¹. For the same molecule, the Km (purified protein [5]) was 60 ± 6 µM, the kcat (purified protein [5]) was 5.48 ± 0.1 s⁻¹ and the kcat/Km (purified protein [5]) was 91700 M⁻¹ s⁻¹. For the same molecule, the Km (purified protein [6]) was 102 ± 3 µM, the kcat (purified protein [6]) was 1.75 ± 0.0333 s⁻¹ and the kcat/Km (purified protein [6]) was 16700 M⁻¹ s⁻¹. The Km (purified protein [7]) was 173 ± 8 µM, the kcat (purified protein [7]) was 1.17 ± 0.0667 s⁻¹ and the kcat/Km (purified protein [7]) was 6670 M⁻¹ s⁻¹. For the same molecule, the Km (purified protein [8]) was 42 ± 5 µM, the kcat (purified protein [8]) was 0.1 ± 0.0167 s⁻¹ and the kcat/Km (purified protein [8]) was 1670 M⁻¹ s⁻¹.
